Test results published in patent US20190359693A1.

B1: MD1213 (VHH)
chain: EVQLVESGGGLVQAGGSLKLSCAASGRTYAMGWFRQAPGKEREFVAHINALGTRTYYSDSVKGRFTISRDNAKNTEYLEMNNLKPEDTAVYYCTAQGQWRAAPVAVAAEYEFWGQGTQVTVSSAAAGGGGSGGGGSGGGGSEVQLVESGGGLVQAGGSLKLSCAASGRTYAMGWFRQAPGKEREFVAHINALGTRTYYSDSVKGRFTISRDNAKNTEYLEMNNLKPEDTAVYYCTAQGQWRAAPVAVAAEYEFWGQGTQVTVSS
B2: MD2320 (bispecific antibody)
chain: EVQLVESGGGLVQAGDSLRISCAASGRTLSIYSMGWFRQAPGKEREFVATIGWNSGRTFYPDSLKGRFTISRDNARNTLYLQMNNLRPEDTAVYYCAAAKGPLRLSSQADYWGQGTQVTVSSGGGGSGGGGSEVQLVESGGGLVQPGGSLRLSCAVSISIFDIYAMDWYRQAPGKQRDLVATSFRDGSTNYADSVKGRFTISRDNAKNTLYLQMNSLKPEDTAVYLCHVSLYRDPLGVAGGMGVYWGKGALVTVSSGGGGSGGGGSEVQLVESGGGLVQPGGSLRLSCAATGFTLENKAIGWFRQTPGSEREGVLCISKSGSWTYYTDSMRGRFTISRDNAENTVYLQMDSLKPEDTAVYYCATTTAGGGLCWDGTTFSRLASSWGQGTQVTVSS
B3: MD2302 (bispecific antibody)
chain: EVQLVESGGGLVQPGGSLRLSCAVSISIFDIYAMDWYRQAPGKQRDLVATSFRDGSTNYADSVKGRFTISRDNAKNTLYLQMNSLKPEDTAVYLCHVSLYRDPLGVAGGMGVYWGKGALVTVSSGGGGSGGGGSEVQLVESGGGLVQPGGSLRLSCAATGFTLENKAIGWFRQTPGSEREGVLCISKSGSWTYYTDSMRGRFTISRDNAENTVYLQMDSLKPEDTAVYYCATTTAGGGLCWDGTTFSRLASSWGQGTQVTVSSGGGGSGGGGSEVQLVESGGGLVQAGGSLKLSCAASGRTYAMGWFRQAPGKEREFVAHINALGTRTYYSDSVKGRFTISRDNAKNTEYLEMNNLKPEDTAVYYCTAQGQWRAAPVAVAAEYEFWGQGTQVTVSS
B4: SD1034 (VHH)
VHH: EVQLVESGGGLVQAGGSLRLSCAASGTIFGIRVNTMGWYRQAPGEQRELVATITRSGGTNYADSVKDRFTISGDFAKDTVYLQMMHLKPEDTAVYYCNGRWALTDYWGQGTQVTVSS
B5: MD2306 (bispecific antibody)
chain: EVQLVESGGGLVQPGGSLRLSCAVSISIFDIYAMDWYRQAPGKQRDLVATSFRDGSTNYADSVKGRFTISRDNAKNTLYLQMNSLKPEDTAVYLCHVSLYRDPLGVAGGMGVYWGKGALVTVSSGGGGSGGGGSEVQLVESGGGLVQPGGSLRLSCAVSISIFDIYAMDWYRQAPGKQRDLVATSFRDGSTNYADSVKGRFTISRDNAKNTLYLQMNSLKPEDTAVYLCHVSLYRDPLGVAGGMGVYWGKGALVTVSSGGGGSGGGGSEVQLVESGGGLVQPGGSLRLSCAATGFTLENKAIGWFRQTPGSEREGVLCISKSGSWTYYTDSMRGRFTISRDNAENTVYLQMDSLKPEDTAVYYCATTTAGGGLCWDGTTFSRLASSWGQGTQVTVSS
B6: MD2322 (VHH)
chain: EVQLVESGGGLVQPGGSLRLSCAVSISIFDIYAMDWYRQAPGKQRDLVATSFRDGSTNYADSVKGRFTISRDNAKNTLYLQMNSLKPEDTAVYLCHVSLYRDPLGVAGGMGVYWGKGALVTVSSGGGGSGGGGSEVQLVESGGGLVQPGGSLRLSCAVSISIFDIYAMDWYRQAPGKQRDLVATSFRDGSTNYADSVKGRFTISRDNAKNTLYLQMNSLKPEDTAVYLCHVSLYRDPLGVAGGMGVYWGKGALVTVSSGGGGSGGGGSEVQLVESGGGLVQPGGSLRLSCAVSISIFDIYAMDWYRQAPGKQRDLVATSFRDGSTNYADSVKGRFTISRDNAKNTLYLQMNSLKPEDTAVYLCHVSLYRDPLGVAGGMGVYWGKGALVTVSS
B7: MD2305 (bispecific antibody)
chain: EVQLVESGGGLVQPGGSLRLSCAVSISIFDIYAMDWYRQAPGKQRDLVATSFRDGSTNYADSVKGRFTISRDNAKNTLYLQMNSLKPEDTAVYLCHVSLYRDPLGVAGGMGVYWGKGALVTVSSGGGGSGGGGSEVQLVESGGGLVQPGGSLRLSCAATGFTLENKAIGWFRQTPGSEREGVLCISKSGSWTYYTDSMRGRFTISRDNAENTVYLQMDSLKPEDTAVYYCATTTAGGGLCWDGTTFSRLASSWGQGTQVTVSSGGGGSGGGGSEVQLVESGGGLVQPGGSLRLSCAVSISIFDIYAMDWYRQAPGKQRDLVATSFRDGSTNYADSVKGRFTISRDNAKNTLYLQMNSLKPEDTAVYLCHVSLYRDPLGVAGGMGVYWGKGALVTVSS
B8: MD2303 (bispecific antibody)
chain: EVQLVESGGGLVQPGGSLRLSCAVSISIFDIYAMDWYRQAPGKQRDLVATSFRDGSTNYADSVKGRFTISRDNAKNTLYLQMNSLKPEDTAVYLCHVSLYRDPLGVAGGMGVYWGKGALVTVSSGGGGSGGGGSEVQLVESGGGLVQAGGSLKLSCAASGRTYAMGWFRQAPGKEREFVAHINALGTRTYYSDSVKGRFTISRDNAKNTEYLEMNNLKPEDTAVYYCTAQGQWRAAPVAVAAEYEFWGQGTQVTVSSGGGGSGGGGSEVQLVESGGGLVQPGGSLRLSCAATGFTLENKAIGWFRQTPGSEREGVLCISKSGSWTYYTDSMRGRFTISRDNAENTVYLQMDSLKPEDTAVYYCATTTAGGGLCWDGTTFSRLASSWGQGTQVTVSS
B9: MD1215 (VHH)
chain: EVQLVESGGGLVQAGGSLKLSCAASGRTYAMGWFRQAPGKEREFVAHINALGTRTYYSDSVKGRFTISRDNAKNTEYLEMNNLKPEDTAVYYCTAQGQWRAAPVAVAAEYEFWGQGTQVTVSSAAAGGGGSGGGGSGGGGSGGGGSGGGGGGSGGGGSGGGGSGGGGSGGGGSGGGGSGGGGSEVQLVESGGGLVQAGGSLKLSCAASGRTYAMGWFRQAPGKEREFVAHINALGTRTYYSDSVKGRFTISRDNAKNTEYLEMNNLKPEDTAVYYCTAQGQWRAAPVAVAAEYEFWGQGTQVTVSS
B10: MD2317 (bispecific antibody)
chain: EVQLVESGGGLVQPGGSLRLSCAVSISIFDIYAMDWYRQAPGKQRDLVATSFRDGSTNYADSVKGRFTISRDNAKNTLYLQMNSLKPEDTAVYLCHVSLYRDPLGVAGGMGVYWGKGALVTVSSGGGGSGGGGSEVQLVESGGGLVQAGDSLRISCAASGRTLSIYSMGWFRQAPGKEREFVATIGWNSGRTFYPDSLKGRFTISRDNARNTLYLQMNNLRPEDTAVYYCAAAKGPLRLSSQADYWGQGTQVTVSSGGGGSGGGGSEVQLVESGGGLVQPGGSLRLSCAATGFTLENKAIGWFRQTPGSEREGVLCISKSGSWTYYTDSMRGRFTISRDNAENTVYLQMDSLKPEDTAVYYCATTTAGGGLCWDGTTFSRLASSWGQGTQVTVSS
B11: MD2301 (bispecific antibody)
chain: EVQLVESGGGLVQPGGSLRLSCAATGFTLENKAIGWFRQTPGSEREGVLCISKSGSWTYYTDSMRGRFTISRDNAENTVYLQMDSLKPEDTAVYYCATTTAGGGLCWDGTTFSRLASSWGQGTQVTVSSGGGGSGGGGSEVQLVESGGGLVQPGGSLRLSCAVSISIFDIYAMDWYRQAPGKQRDLVATSFRDGSTNYADSVKGRFTISRDNAKNTLYLQMNSLKPEDTAVYLCHVSLYRDPLGVAGGMGVYWGKGALVTVSSGGGGSGGGGSEVQLVESGGGLVQAGGSLKLSCAASGRTYAMGWFRQAPGKEREFVAHINALGTRTYYSDSVKGRFTISRDNAKNTEYLEMNNLKPEDTAVYYCTAQGQWRAAPVAVAAEYEFWGQGTQVTVSS
B12: MD2406 (VHH)
chain: EVQLVESGGGLVQPGGSLRLSCAVSISIFDIYAMDWYRQAPGKQRDLVATSFRDGSTNYADSVKGRFTISRDNAKNTLYLQMNSLKPEDTAVYLCHVSLYRDPLGVAGGMGVYWGKGALVTVSSGGGGSGGGGSEVQLVESGGGLVQPGGSLRLSCAVSISIFDIYAMDWYRQAPGKQRDLVATSFRDGSTNYADSVKGRFTISRDNAKNTLYLQMNSLKPEDTAVYLCHVSLYRDPLGVAGGMGVYWGKGALVTVSSGGGGSGGGGSEVQLVESGGGLVQPGGSLRLSCAVSISIFDIYAMDWYRQAPGKQRDLVATSFRDGSTNYADSVKGRFTISRDNAKNTLYLQMNSLKPEDTAVYLCHVSLYRDPLGVAGGMGVYWGKGALVTVSSGGGGSGGGGSEVQLVESGGGLVQPGGSLRLSCAVSISIFDIYAMDWYRQAPGKQRDLVATSFRDGSTNYADSVKGRFTISRDNAKNTLYLQMNSLKPEDTAVYLCHVSLYRDPLGVAGGMGVYWGKGALVTVSS

Assays:
Experiment in all cases: cell-based or functional assay
[1] = molecular target: hemagglutinin (HA) of influenza virus H1N1 A/Puerto Rico/8/34-MA (influenza A virus)
[2] = molecular target: hemagglutinin (HA) of influenza virus H3N2 A/Wisconsin/67/05 (influenza A virus)
[3] = molecular target: hemagglutinin (HA) of influenza virus H1N1 A/California/07/09 (influenza A virus)
[4] = molecular target: hemagglutinin (HA) of influenza virus H5N1 A/Vietnam/1194/04 (influenza A virus)
[5] = molecular target: hemagglutinin (HA) of influenza virus H7N7 A/PR8 H7N7-NY (influenza A virus)
[6] = molecular target: hemagglutinin (HA) of influenza virus H7N3 A/NIBRG/60 (A/mallard/Netherlands/12/00) (influenza A virus)
[7] = molecular target: hemagglutinin (HA) of influenza virus H1N1 A/New Caledonia/20/99 (influenza A virus)
[8] = molecular target: hemagglutinin (HA) of influenza virus B/Florida/04/06 (Yamagata) (influenza B virus)
[9] = molecular target: HA of H5N1 A/Vietnam/1194/04 (influenza A virus)
[10] = molecular target: HA of H3N2 A/Brisbane/10/2007 (influenza A virus)
[11] = molecular target: HA of H7N3 A/NIBRG/60 (A/mallard/NL/12/00) (influenza A virus)
[12] = molecular target: HA of H1N1 A/New Caledonia/20/1999 (influenza A virus)
[13] = molecular target: HA of H1N1 A/Puerto Rico/8/34-MA (influenza A virus)
[14] = molecular target: hemagglutinin (HA) of influenza virus H3N2 A/Brisbane/10/07 (influenza A virus)

Row | Binder | average neutralization titer [2] [nM] | average neutralization titer [5] [nM] | average neutralization titer [6] [nM] | average neutralization titer [7] [nM] | other results
1 | B1 | – | – | – | – | neutralization titer [1]: 27.8 nM; neutralization titer [2]: 18.6 nM; neutralization titer [3]: 2.4 nM; neutralization titer [4]: < 1000 nM
2 | B2 | > 1000 | 15.3 | 15.3 | – | –
3 | B3 | 34.7 | – | – | 14.7 | average neutralization titer [8]: 412 nM
4 | B4 | – | – | – | – | VNA titer [9]: 722 nM; VNA titer [10]: > 1000 nM; VNA titer [11]: > 1000 nM; VNA titer [12]: 161 nM; VNA titer [13]: 756 nM
5 | B5 | 5.4 | – | 15.4 | 6.1 | average neutralization titer [14]: 10.7 nM; average neutralization titer [4]: 4.7 nM
6 | B6 | 7.3 | 14.7 | 6.1 | – | –
7 | B7 | 21.7 | – | – | 4.3 | –
8 | B8 | 15 | 18.2 | 10.2 | 7.2 | average neutralization titer [14]: 12.8 nM; average neutralization titer [8]: 412 nM; average neutralization titer [1]: 9.1 nM; average neutralization titer [4]: 9.1 nM
9 | B9 | – | – | – | – | neutralization titer [1]: 39.6 nM; neutralization titer [2]: 34.1 nM; neutralization titer [3]: 4.1 nM; neutralization titer [4]: 918 nM
10 | B10 | 12.8 | 12.8 | 12.8 | – | –
11 | B11 | 34.7 | – | – | 14.7 | average neutralization titer [8]: 412 nM
12 | B12 | 4.6 | 11 | 4.6 | – | –
